One protein from paper PMC6356861 (ACS Omega, 2019) can be followed below.

The data set concerns the molecule itself. Briefly: SAXS.

B1: simian virus 40 (SV40) major capsid protein VP1, as soluble VP1 pentamers (natural protein)
chain: APTKRKGSCPGAAPKKPKEPVQVPKLVIKGGIEVLGVKTGVDSFTEVECFLNPQMGNPDEHQKGLSKSLAAEKQFTDDSPDKEQLPCYSVARIPLPNINEDLTCGNILMWEAVTVKTEVIGVTAMLNLHSGTQKTHENGAGKPIQGSNFHFFAVGGEPLELQGVLANYRTKYPAQTVTPKNATVDSQQMNTDHKAVLDKDNAYPVECWVPDPSKNENTRYFGTYTGGENVPPVLHITNTATTVLLDEQGVGPLCKADSLYVSAVDICGLFTNTSGTQQWKGLPRYFKITLRKRSVKNPYPISFLLSDLINRRTQRVDGQPMIGMSSQVEEVRVYEDTEELPGDPDMIRYIDEFGQTTTRMQ
Take B1: the binding result was “binds”.
